Reference: patent US20250263440A1, “CD38-BINDING AGENTS AND USES THEREOF” (PeptiDream Inc., priority 2019, published 2025)
Starred links: 1 amine or outer side, 2 acyl side, 3 side chain; linkers in the order of their positions; H or OH if unused. Positions of bridges follow the written chain, without caps; N, C: chain ends. Non-standard residues stand in square brackets, D forms with d. No end group written: not given here. F3G = 3-guanidinophenylalanine, N=C(N)Nc1cccc(C[C@H](N[*:1])C(=O)[*:2])c1; Bip = N[C@@H](Cc1ccc(-c2ccccc2)cc1)C(=O)O; Met(O2) = CS(=O)(=O)CC[C@H](N)C(=O)O; hArg = N=C(N)NCCCC[C@H](N)C(=O)O; Ahp(2) = CCCCC[C@H](N)C(=O)O

B1: Circular peptide having amino acid sequence represented by SEQ ID NO.29 (peptide)
peptide: {CH2CO}-A[F3G][Ahp(2)]YHDEVL[Bip][Ahp(2)]DC
modifications: thioether N-13; not fully specified; also: circular peptide, closure not given here
B2: Circular peptide having amino acid sequence represented by SEQ ID NO.12 (peptide)
peptide: {CH2CO}-AR[Ahp(2)]YHD[hArg]VL[Bip][Ahp(2)]DC
modifications: thioether N-13; not fully specified; also: circular peptide, closure not given here
B3: Circular peptide having amino acid sequence represented by SEQ ID NO.13 (peptide)
peptide: {CH2CO}-AR[Ahp(2)]YHDQV[Met(O2)][Bip][Ahp(2)]DC
modifications: thioether N-13; not fully specified; also: circular peptide, closure not given here
B4: Circular peptide having amino acid sequence represented by SEQ ID NO.14 (peptide)
peptide: {CH2CO}-AR[Ahp(2)]YHDEV[Met(O2)][Bip][Ahp(2)]DC
modifications: thioether N-13; not fully specified; also: circular peptide, closure not given here
B5: Circular peptide having amino acid sequence represented by SEQ ID NO.23 (peptide)
peptide: ARXYHDEVLXXDC
modifications: not fully specified; Ahp at 3; Bph at 10; Ano ((S)-2-aminononanoic acid) at 11; circular peptide
B6: Circular peptide having amino acid sequence represented by SEQ ID NO.24 (peptide)
peptide: ARXYHDEVLXXDC
modifications: not fully specified; Ahp at 3; Bph at 10; Ado ((S)-2-aminoundecanoic acid) at 11; circular peptide
B7: Circular peptide having amino acid sequence represented by SEQ ID NO.25 (peptide)
peptide: ARXYHDEVLXXDC
modifications: not fully specified; Ahp at 3; Bph at 10; PhNle ((S)-2-amino-6-phenylhexanoic acid) at 11; circular peptide
B8: Circular peptide having amino acid sequence represented by SEQ ID NO.26 (peptide)
peptide: ARXYHDEVLXXDC
modifications: not fully specified; Ahp at 3; Bph at 10; PhNva ((S)-2-amino-5-phenylpentanoic acid) at 11; circular peptide

The binders below were run against T1, His-tagged CD38 (human, UniProt P28907 43-300, limits assumed) (assay: SPR (Biacore S200), His-tagged CD38 immobilised, single-cycle kinetics).
T1 construct: The order of CD38 and tag is not known; not shown: His tag
Experimental: EDC/NHS mixture was injected at a flow rate of […] for 7 minutes to thereby activate the functional groups on sensor chip. His-tagged CD38 in Running Buffer (10 mM HEPES pH7.4, 150 mM NaCl, 0.05% Tween 20) was injected immobilized to at a flow rate of […]. For 7 minutes to immobilize the CD38 on the substrate surfaces of the sensor chip. Then Ethanolamine was injected at a flow rate of […] for 7 minutes.
1.0 M Ethanolamine(aq.) was injected at a flow rate of 10 L/min for 420 seconds for capping. 10 mM peptides (which were synthesised described above) in DMSO were diluted to obtain 10 uM with Running Buffer, and prepared 100 nM, 50 nM, 25 nM, 10 nM, 5 nM of each peptide's solutions (Peptide Samples).
Using these Peptide Samples, kinetics of peptides against His-tagged CD38 was measured. The method adopted for sample measurement was a single-cycle kinetics method. The analysis was conducted using the evaluation software 1.1 provided with Biacore S200. A DMSO correction curve obtained by solvent correction measurements was applied for the analysis. Kinetics fitting was done on the difference data obtained by subtracting the baseline data from sample measurement data.

First: B1
Second: {CH2CO}-AR[Ahp(2)]YHDGV[Met(O2)][Bip][Ahp(2)]DC (thioether N-13; not fully specified) [Circular peptide having amino acid sequence represented by SEQ ID NO.9]
The Kd of the first is 4.7-fold lower: 2 nM for the first, 9.44 nM for the second.

Compared with B2, B3 is 9.7-fold higher in Kd: 2.29 nM for the first, 22.2 nM for the second. The first binds more tightly here.

Compared with B4, B5 is 11-fold lower in Kd: 38 nM for the first, 3.34 nM for the second. The second binds more tightly here.

First: B6
Second: B7
The Kd of the first is 2.6-fold higher: 3.53 nM for the first, 1.38 nM for the second.

For B8, the Kd was 26 nM.

The binders below were run against Recombinant human CD38 protein (R&D Systems) (human, UniProt P28907 43-300) (assay: ELISA).

First: {CH2CO}-AA[Ahp(2)]YHDGVL[Bip][Ahp(2)]DC (thioether N-13) [I-1 analogue with Ala at position 2 (A A Ahp Y H D G V L Bph Ahp D C)]
Second: {CH2CO}-AR[Ahp(2)]AHDGVL[Bip][Ahp(2)]DC (thioether N-13) [I-1 analogue with Ala at position 4 (A R Ahp A H D G V L Bph Ahp D C)]
The “Binding Assay (larger values indicate stronger binding)” value (“Binding Assay” for short) of the first is higher: 0.6 for the first, 0.11 for the second.

Going from {CH2CO}-AR[Ahp(2)]YADGVL[Bip][Ahp(2)]DC (thioether N-13) [I-1 analogue with Ala at position 5 (A R Ahp Y A D G V L Bpb Ahp D C)] to {CH2CO}-AR[Ahp(2)]YHAGVL[Bip][Ahp(2)]DC (thioether N-13) [I-1 analogue with Ala at position 6 (A R Ahp Y H A G V L Bph Ahp D C)], the “Binding Assay” value rises from 0.28 to 0.93.

Going from {CH2CO}-AR[Ahp(2)]YHDAVL[Bip][Ahp(2)]DC (thioether N-13) [I-1 analogue with Ala at position 7 (A R Ahp Y H D A V L Bpb Ahp D C)] to {CH2CO}-AR[Ahp(2)]YHDGAL[Bip][Ahp(2)]DC (thioether N-13) [I-1 analogue with Ala at position 8 (A R Ahp Y H D G A L Bph Ahp D C)], the “Binding Assay” value falls from 1.49 to 0.3.

With {CH2CO}-AR[Ahp(2)]YHDGVA[Bip][Ahp(2)]DC (thioether N-13) [I-1 analogue with Ala at position 9 (A R Ahp Y H D G V A Bph Ahp D C)] the “Binding Assay” value was 0.08.
